Conditions in all cases: protein: recombinant; tags: His (pET-32a vector)
The target in data set [1] is T1, hnRNPA1-His (hnRNPA1A) (UniProt P09651-2 1-320). Kind of data set: pull-down; purified protein; BLI: PBS, 0.002% Tween-20, 0.02% BSA, temperature not stated; pull-down: lysate in 150 mM KCl, 0.5 mM DTT, 0.5% NP-40, 25 mM Tris-HCl pH 7.5, 4 C overnight.
Data set [2] has as its target T1, hnRNPA1-His (hnRNPA1A). In words: BLI; protein on Ni-NTA probe; KD only in figure; BLI: PBS, 0.002% Tween-20, 0.02% BSA, temperature not stated; pull-down: lysate in 150 mM KCl, 0.5 mM DTT, 0.5% NP-40, 25 mM Tris-HCl pH 7.5, 4 C overnight. On the technique in general: BLI is a label-free optical method that tracks binding on a fibre tip over time.
In data set [3] the target is S91D/S95D-His (UniProt P09651-2 1-320, S91D;S95D). Kind of data set: BLI; similar or stronger affinity than WT but reduced binding amount; KD only in figure; BLI: PBS, 0.002% Tween-20, 0.02% BSA, temperature not stated; pull-down: lysate in 150 mM KCl, 0.5 mM DTT, 0.5% NP-40, 25 mM Tris-HCl pH 7.5, 4 C overnight.
For data set [4], the target named is S91A/S95A-His (UniProt P09651-2 1-320, S91A;S95A). Kind of data set: BLI; protein on Ni-NTA probe; affinity and amount higher than WT; KD only in figure; BLI: PBS, 0.002% Tween-20, 0.02% BSA, temperature not stated; pull-down: lysate in 150 mM KCl, 0.5 mM DTT, 0.5% NP-40, 25 mM Tris-HCl pH 7.5, 4 C overnight.
Data set [5] concerns the target T1, hnRNPA1-His (hnRNPA1A). In words: BLI; RNA on streptavidin probe; lower KD than oligo2 but less protein bound; value only in figure; BLI: PBS, 0.002% Tween-20, 0.02% BSA, temperature not stated; pull-down: lysate in 150 mM KCl, 0.5 mM DTT, 0.5% NP-40, 25 mM Tris-HCl pH 7.5, 4 C overnight.

T1 sequence (P09651 other isoform, or with tags, fused parts or gaps): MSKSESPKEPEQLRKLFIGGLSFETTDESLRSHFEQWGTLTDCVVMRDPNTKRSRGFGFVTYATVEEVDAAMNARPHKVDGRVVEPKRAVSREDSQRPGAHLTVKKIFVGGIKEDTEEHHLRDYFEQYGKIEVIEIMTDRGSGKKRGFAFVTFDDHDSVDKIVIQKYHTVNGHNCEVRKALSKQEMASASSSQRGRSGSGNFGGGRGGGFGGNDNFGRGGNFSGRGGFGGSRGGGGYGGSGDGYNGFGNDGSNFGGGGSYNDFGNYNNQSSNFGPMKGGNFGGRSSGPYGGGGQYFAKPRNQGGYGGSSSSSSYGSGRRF
Sequence of S91D/S95D-His (P09651 other isoform, or with tags, fused parts or gaps S91D;S95D | S91D S95D S91D S95D): as the sequence (P09651 other isoform, or with tags, fused parts or gaps) above, with S91D, S95D counted along it
Sequence of S91A/S95A-His (P09651 other isoform, or with tags, fused parts or gaps S91A;S95A | S91A S95A S91A S95A): as the sequence (P09651 other isoform, or with tags, fused parts or gaps) above, with S91A, S95A counted along it

Consider AGCAGCCUCCUCUGCCCUGCUUCUCCCUAGGUUGUU (ssRNA) [oligo1], for which the binding result in data set [1] was “binds”.
For the molecule ACAACUGCCACAUAGGUAAGGCCAGGCCGC (ssRNA) [oligo2], the binding result in data set [2], in data set [3] and in data set [4] was “binds” throughout.
For the molecule ACAACUGCCACACCGGUAAGGCCAGGCCGC (ssRNA) [oligo2-U13C+A14C], in data set [5], the binding result is on record as “binds”.
